± gives the uncertainty stated by the source.
Test: abundance fitness (aPCA) (normalised: wild type 0, dead -1); higher = more abundant; growth selection in yeast, the domain comes from the species named
Details: Homo sapiens

“NEDD4-like E3 ubiquitin-protein ligase WWP2 H465K, O00308” and “NEDD4-like E3 ubiquitin-protein ligase WWP2 H465L, O00308” are within error of each other in abundance fitness: -0.216 ± 0.064 for the first, -0.315 ± 0.045 for the second.

“NEDD4-like E3 ubiquitin-protein ligase WWP2 H465M, O00308” and “NEDD4-like E3 ubiquitin-protein ligase WWP2 H465N, O00308” are within error of each other in abundance fitness: -0.357 ± 0.072 for the first, -0.208 ± 0.086 for the second.

Compared with “NEDD4-like E3 ubiquitin-protein ligase WWP2 H465P, O00308”, “NEDD4-like E3 ubiquitin-protein ligase WWP2 H465Q, O00308” is higher in abundance fitness: -0.556 ± 0.088 for the first, -0.332 ± 0.042 for the second.

“NEDD4-like E3 ubiquitin-protein ligase WWP2 H465R, O00308” and “NEDD4-like E3 ubiquitin-protein ligase WWP2 H465S, O00308” are within error of each other in abundance fitness: -0.278 ± 0.036 for the first, -0.247 ± 0.034 for the second.

“NEDD4-like E3 ubiquitin-protein ligase WWP2 H465T, O00308” and “NEDD4-like E3 ubiquitin-protein ligase WWP2 H465V, O00308” are within error of each other in abundance fitness: -0.292 ± 0.061 for the first, -0.357 ± 0.05 for the second.

“NEDD4-like E3 ubiquitin-protein ligase WWP2 H465W, O00308” and “NEDD4-like E3 ubiquitin-protein ligase WWP2 H465Y, O00308” are within error of each other in abundance fitness: -0.422 ± 0.042 for the first, -0.386 ± 0.064 for the second.

“NEDD4-like E3 ubiquitin-protein ligase WWP2 I441A, O00308” and “NEDD4-like E3 ubiquitin-protein ligase WWP2 I441C, O00308” are within error of each other in abundance fitness: -0.113 ± 0.053 for the first, -0.166 ± 0.078 for the second.

Going from “NEDD4-like E3 ubiquitin-protein ligase WWP2 I441D, O00308” to “NEDD4-like E3 ubiquitin-protein ligase WWP2 I441F, O00308”, the abundance fitness rises from -0.419 ± 0.14 to -0.13 ± 0.059.

Compared with “NEDD4-like E3 ubiquitin-protein ligase WWP2 I441H, O00308”, “NEDD4-like E3 ubiquitin-protein ligase WWP2 I441K, O00308” is higher in abundance fitness: -0.204 ± 0.065 for the first, 0.052 ± 0.04 for the second.

First: NEDD4-like E3 ubiquitin-protein ligase WWP2 I441L, O00308
Second: NEDD4-like E3 ubiquitin-protein ligase WWP2 I441N, O00308
The abundance fitness of the first is lower: -0.198 ± 0.054 for the first, 0.137 ± 0.071 for the second.

Going from “NEDD4-like E3 ubiquitin-protein ligase WWP2 I441P, O00308” to “NEDD4-like E3 ubiquitin-protein ligase WWP2 I441Q, O00308”, the abundance fitness rises from -0.503 ± 0.083 to -0.035 ± 0.068.

Going from “NEDD4-like E3 ubiquitin-protein ligase WWP2 I441S, O00308” to “NEDD4-like E3 ubiquitin-protein ligase WWP2 I441T, O00308”, the abundance fitness rises from -0.123 ± 0.044 to 0.009 ± 0.04.

Compared with “NEDD4-like E3 ubiquitin-protein ligase WWP2 I441V, O00308”, “NEDD4-like E3 ubiquitin-protein ligase WWP2 I441W, O00308” is lower in abundance fitness: -0.14 ± 0.048 for the first, -0.297 ± 0.067 for the second.

Going from “NEDD4-like E3 ubiquitin-protein ligase WWP2 I441Y, O00308” to “NEDD4-like E3 ubiquitin-protein ligase WWP2 K453A, O00308”, the abundance fitness rises from -0.33 ± 0.11 to 0.037 ± 0.046.

First: NEDD4-like E3 ubiquitin-protein ligase WWP2 K453C, O00308
Second: NEDD4-like E3 ubiquitin-protein ligase WWP2 K453D, O00308
The abundance fitness of the first is lower: -0.226 ± 0.079 for the first, -0.029 ± 0.067 for the second.

Going from “NEDD4-like E3 ubiquitin-protein ligase WWP2 K453E, O00308” to “NEDD4-like E3 ubiquitin-protein ligase WWP2 K453F, O00308”, the abundance fitness rises from -0.23 ± 0.058 to -0.006 ± 0.075.

Going from “NEDD4-like E3 ubiquitin-protein ligase WWP2 K453G, O00308” to “NEDD4-like E3 ubiquitin-protein ligase WWP2 K453H, O00308”, the abundance fitness rises from -0.328 ± 0.052 to -0.137 ± 0.047.

Going from “NEDD4-like E3 ubiquitin-protein ligase WWP2 K453I, O00308” to “NEDD4-like E3 ubiquitin-protein ligase WWP2 K453L, O00308”, the abundance fitness rises from -0.167 ± 0.053 to 0.034 ± 0.038.

Going from “NEDD4-like E3 ubiquitin-protein ligase WWP2 K453M, O00308” to “NEDD4-like E3 ubiquitin-protein ligase WWP2 K453N, O00308”, the abundance fitness falls from -0.006 ± 0.05 to -0.316 ± 0.063.

First: NEDD4-like E3 ubiquitin-protein ligase WWP2 K453P, O00308
Second: NEDD4-like E3 ubiquitin-protein ligase WWP2 K453R, O00308
The abundance fitness of the first is lower: -1.01 ± 0.12 for the first, -0.043 ± 0.045 for the second.

“NEDD4-like E3 ubiquitin-protein ligase WWP2 K453S, O00308” and “NEDD4-like E3 ubiquitin-protein ligase WWP2 K453T, O00308” are within error of each other in abundance fitness: -0.183 ± 0.042 for the first, -0.128 ± 0.056 for the second.

“NEDD4-like E3 ubiquitin-protein ligase WWP2 K453V, O00308” and “NEDD4-like E3 ubiquitin-protein ligase WWP2 K453W, O00308” are within error of each other in abundance fitness: -0.063 ± 0.05 for the first, -0.013 ± 0.059 for the second.

“NEDD4-like E3 ubiquitin-protein ligase WWP2 K453Y, O00308” and “NEDD4-like E3 ubiquitin-protein ligase WWP2 K473A, O00308” are within error of each other in abundance fitness: -0.153 ± 0.042 for the first, -0.111 ± 0.045 for the second.

“NEDD4-like E3 ubiquitin-protein ligase WWP2 K473C, O00308” and “NEDD4-like E3 ubiquitin-protein ligase WWP2 K473E, O00308” are within error of each other in abundance fitness: -0.003 ± 0.066 for the first, -0.059 ± 0.035 for the second.

Going from “NEDD4-like E3 ubiquitin-protein ligase WWP2 K473F, O00308” to “NEDD4-like E3 ubiquitin-protein ligase WWP2 K473H, O00308”, the abundance fitness falls from 0.102 ± 0.082 to -0.1 ± 0.055.

Going from “NEDD4-like E3 ubiquitin-protein ligase WWP2 K473I, O00308” to “NEDD4-like E3 ubiquitin-protein ligase WWP2 K473L, O00308”, the abundance fitness falls from 0.028 ± 0.07 to -0.165 ± 0.058.

Going from “NEDD4-like E3 ubiquitin-protein ligase WWP2 K473M, O00308” to “NEDD4-like E3 ubiquitin-protein ligase WWP2 K473N, O00308”, the abundance fitness falls from 0.093 ± 0.08 to -0.402 ± 0.095.

Going from “NEDD4-like E3 ubiquitin-protein ligase WWP2 K473P, O00308” to “NEDD4-like E3 ubiquitin-protein ligase WWP2 K473Q, O00308”, the abundance fitness rises from -1.11 ± 0.12 to -0.091 ± 0.082.

“NEDD4-like E3 ubiquitin-protein ligase WWP2 K473R, O00308” and “NEDD4-like E3 ubiquitin-protein ligase WWP2 K473S, O00308” are within error of each other in abundance fitness: -0.081 ± 0.055 for the first, -0.128 ± 0.055 for the second.

Going from “NEDD4-like E3 ubiquitin-protein ligase WWP2 K473T, O00308” to “NEDD4-like E3 ubiquitin-protein ligase WWP2 K473V, O00308”, the abundance fitness rises from -0.097 ± 0.066 to 0.112 ± 0.041.

“NEDD4-like E3 ubiquitin-protein ligase WWP2 K473W, O00308” and “NEDD4-like E3 ubiquitin-protein ligase WWP2 K473Y, O00308” are within error of each other in abundance fitness: -0.026 ± 0.075 for the first, 0.087 ± 0.071 for the second.

“NEDD4-like E3 ubiquitin-protein ligase WWP2 K484A, O00308” and “NEDD4-like E3 ubiquitin-protein ligase WWP2 K484C, O00308” are within error of each other in abundance fitness: -0.073 ± 0.058 for the first, -0.033 ± 0.055 for the second.

Source: the Human Domainome abundance scans (Beltran et al. 2025)
